# From US6150090
# Target: IgNF-A (NF-A1), ubiquitous octamer-binding protein (Homo sapiens) (UniProt P14859)
# Assay: EMSA
# Conditions: affinity over heterologous plasmid DNA; poly(dI-dC) carrier; DNase I footprint -72 to -52
# Chain of IgNF-A (NF-A1), ubiquitous octamer-binding protein (Homo sapiens) (P14859 whole entry): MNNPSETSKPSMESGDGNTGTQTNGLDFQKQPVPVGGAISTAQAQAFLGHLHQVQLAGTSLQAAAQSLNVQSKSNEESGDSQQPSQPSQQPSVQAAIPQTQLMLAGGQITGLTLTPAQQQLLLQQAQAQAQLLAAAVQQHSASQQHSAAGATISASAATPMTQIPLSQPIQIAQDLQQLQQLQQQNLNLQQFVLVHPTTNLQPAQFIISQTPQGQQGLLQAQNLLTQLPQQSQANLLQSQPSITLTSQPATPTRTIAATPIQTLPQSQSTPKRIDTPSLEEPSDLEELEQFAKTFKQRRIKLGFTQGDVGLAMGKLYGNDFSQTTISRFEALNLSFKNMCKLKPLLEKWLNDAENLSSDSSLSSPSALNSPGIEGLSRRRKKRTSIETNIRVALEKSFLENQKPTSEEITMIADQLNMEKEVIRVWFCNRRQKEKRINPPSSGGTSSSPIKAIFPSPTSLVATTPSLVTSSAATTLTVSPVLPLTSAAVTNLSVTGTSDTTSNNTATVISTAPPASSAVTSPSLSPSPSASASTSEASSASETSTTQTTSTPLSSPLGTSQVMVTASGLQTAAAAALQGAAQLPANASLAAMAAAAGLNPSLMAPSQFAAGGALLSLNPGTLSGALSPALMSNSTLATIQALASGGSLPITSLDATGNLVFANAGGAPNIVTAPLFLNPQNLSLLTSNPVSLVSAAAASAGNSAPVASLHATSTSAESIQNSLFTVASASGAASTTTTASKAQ
substance,measurement,value
MOPC41 V kappa promoter PvuII-SfaNI fragment,binding signal,> 10000 fold
